The target of experiment [1] is T1, CD3EG-HSA-6xHis (CD3W220.002) (human, UniProt P07766 22-118; P09693 23-103).
T1 construct: also called human CD3; not shown: human serum albumin (HSA); 6xHis tag
Briefly: SPR, forced degradation: pH 5.0.

In experiment [2] the target is T2, Flag/6xhis-CALRdel52 (CALRW12.007) (human, UniProt P27797 18-417).
T2 construct: also called human CALRdel52
T2 sequence (looked up): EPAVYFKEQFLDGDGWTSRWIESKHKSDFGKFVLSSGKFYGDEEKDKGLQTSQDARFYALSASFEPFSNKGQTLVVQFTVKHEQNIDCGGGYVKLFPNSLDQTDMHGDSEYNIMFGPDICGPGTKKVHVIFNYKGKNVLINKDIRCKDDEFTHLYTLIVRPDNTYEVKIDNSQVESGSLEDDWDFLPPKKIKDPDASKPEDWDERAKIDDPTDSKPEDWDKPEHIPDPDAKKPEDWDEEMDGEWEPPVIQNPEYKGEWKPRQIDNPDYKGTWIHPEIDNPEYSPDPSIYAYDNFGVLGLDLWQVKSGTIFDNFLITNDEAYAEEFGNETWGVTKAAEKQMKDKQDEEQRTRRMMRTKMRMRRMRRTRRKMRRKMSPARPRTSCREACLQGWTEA
Briefly: SPR, forced degradation: pH 5.0.

The target of experiment [3] is T3, Avi/his-CalR-Ins5 (CALRW28.004) (human, UniProt P27797 18-417, limits assumed).
T3 construct: also called human CALRins5
T3 sequence (looked up): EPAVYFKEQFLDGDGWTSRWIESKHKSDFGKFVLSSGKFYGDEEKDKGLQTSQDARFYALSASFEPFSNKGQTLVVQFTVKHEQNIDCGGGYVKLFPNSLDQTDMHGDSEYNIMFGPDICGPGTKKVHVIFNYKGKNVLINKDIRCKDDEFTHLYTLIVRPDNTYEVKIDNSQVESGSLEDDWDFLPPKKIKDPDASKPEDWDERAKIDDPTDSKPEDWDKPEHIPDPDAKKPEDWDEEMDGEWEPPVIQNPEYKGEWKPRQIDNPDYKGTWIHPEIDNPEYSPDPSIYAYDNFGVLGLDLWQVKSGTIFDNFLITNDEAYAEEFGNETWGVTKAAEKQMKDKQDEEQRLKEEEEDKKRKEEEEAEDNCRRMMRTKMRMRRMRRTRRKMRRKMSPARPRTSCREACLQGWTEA
Briefly: SPR, forced degradation: pH 5.0.

The target in experiment [4] is T1, CD3EG-HSA-6xHis (CD3W220.002). Briefly: SPR, forced degradation: Chem Ox.
Experiment [5] deals with T2, Flag/6xhis-CALRdel52 (CALRW12.007). Briefly: SPR, forced degradation: Chem Ox.
Experiment [6] addresses T3, Avi/his-CalR-Ins5 (CALRW28.004). Briefly: SPR, forced degradation: Chem Ox.
Experiment [7] deals with T4, CALRins5 (mutant calreticulin, 5 base pair insertion, Type 2) expressed with MPL on engineered cancer cells (UniProt P27797 18-417).
T4 construct: whole, on cells; On the cell surface in complex with MPL; also called OCI-M2 MPL CALRins5
T4 sequence (looked up): T3 sequence (looked up)
Briefly: flow cytometry on ELF-153 MPL CALRins5 cells, 1 h at 37 C, AF647 secondary antibody, Geometric Mean. How it is done:
FIGS. 4A-4F depict graphs of CALRmutxCD3 bispecific antibody C3CRB73 binding to cells CALRmut-negative or CALRmut-positive. Flow cytometry was used to evaluate C3CRB73 binding to CALRmut-negative and CALRmut-positive cancer cells in vitro. C3CRB73 and NullxCD3 control were tested on a panel of cell lines, engineered to express MPL and CALRmut, after 1 hour 37° C. incubation, with subsequent incubation with secondary AF647-labeled antibody. Geometric mean fluorescence intensity of AF647 was measured to determine antibody binding. […] Abbreviations: CALR, calreticulin; CALRmut, mutant calreticulin; CD, cluster of differentiation; del, deletion; ins, insertion; MPL, thrombopoietin receptor; spFv, stapled single chain fragment variable; wt, wild type.

Experiment [8] addresses T5, thrombopoietin receptor (MPL) on cells without CALRmut (UniProt P40238 26-635, limits assumed).
T5 construct: whole, on cells; endogenous on healthy donor CD34+ cells; also called TPOR
T5 sequence (looked up): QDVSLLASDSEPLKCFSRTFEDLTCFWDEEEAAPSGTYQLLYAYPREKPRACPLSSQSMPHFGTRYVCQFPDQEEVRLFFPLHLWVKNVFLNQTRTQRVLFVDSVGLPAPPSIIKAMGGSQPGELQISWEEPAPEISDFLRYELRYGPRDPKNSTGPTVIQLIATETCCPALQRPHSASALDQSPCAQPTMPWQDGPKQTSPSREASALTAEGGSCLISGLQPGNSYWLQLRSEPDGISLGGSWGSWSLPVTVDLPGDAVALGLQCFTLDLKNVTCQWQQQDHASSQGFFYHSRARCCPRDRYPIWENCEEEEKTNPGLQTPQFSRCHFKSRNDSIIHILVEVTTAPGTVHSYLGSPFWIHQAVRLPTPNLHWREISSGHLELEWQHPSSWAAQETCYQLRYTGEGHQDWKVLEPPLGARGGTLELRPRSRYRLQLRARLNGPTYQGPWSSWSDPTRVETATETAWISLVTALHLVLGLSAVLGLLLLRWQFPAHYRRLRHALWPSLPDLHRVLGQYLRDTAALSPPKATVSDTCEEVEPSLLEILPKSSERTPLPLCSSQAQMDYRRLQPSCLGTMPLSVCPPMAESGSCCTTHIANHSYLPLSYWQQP
Briefly: flow cytometry on ELF-153 MPL cells, 1 h at 37 C, AF647 secondary antibody, Geometric Mean.

In experiment [9] the target is T4, CALRins5 (mutant calreticulin, 5 base …). Briefly: cell-based or functional assay.
The target in experiment [10] is T6, CALRdel52 (mutant calreticulin, 52 base pair deletion, Type 1) expressed with MPL on engineered cancer cells (UniProt P27797 18-417).
T6 sequence (looked up): T2 sequence (looked up)
Briefly: cell-based or functional assay.

Experiment [11] deals with T3, Avi/his-CalR-Ins5 (CALRW28.004). Briefly: SPR, forced degradation: Thermal.

T1 sequence (P07766 other isoform, or with tags, fused parts or gaps): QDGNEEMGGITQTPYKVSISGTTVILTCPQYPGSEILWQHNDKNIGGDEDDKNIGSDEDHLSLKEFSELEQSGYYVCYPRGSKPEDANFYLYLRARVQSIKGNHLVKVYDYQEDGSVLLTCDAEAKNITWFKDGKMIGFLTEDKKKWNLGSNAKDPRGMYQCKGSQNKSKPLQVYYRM

B1: C3CRB73 CALRmut x CD3 bispecific antibody (bispecific antibody, human IgG1, kappa, L234A L235A)
heavy: EVQLLESGGGLVQPGGSLRLSCAVSGIDLSNNAISWVRQAPGKGLEYVGVIGNTGDTYYADSAKGRFTISRDSSKTTLYLQMNSLRAEDTAVYFCVRGPPSYSSSVKNIWGQGTLVTVSSASTKGPSVFPLAPSSKSTSGGTAALGCLVKDYFPEPVTVSWNSGALTSGVHTFPAVLQSSGLYSLSSVVTVPSSSLGTQTYICNVNHKPSNTKVDKKVEPKSCDKTHTCPPCPAPEAAGGPSVFLFPPKPKDTLMISRTPEVTCVVVSVSHEDPEVKFNWYVDGVEVHNAKTKPREEQYNSTYRVVSVLTVLHQDWLNGKEYKCKVSNKALPAPIEKTISKAKGQPREPQVYTLPPSREEMTKNQVSLSCAVKGFYPSDIAVEWESNGQPENNYKTTPPVLDSDGSFFLVSKLTVDKSRWQQGNVFSCSVMHEALHNRFTQKSLSLSPGK
light: DIQMTQSPSSVSASVGDRVTITCQSSQSVYNNNWLSWLQQKPGKAPKRLIYDASKLESGVPSRFSGSGSGTDFTLTISSVQPEDAATYYCAGGFTGNVYTFGGGTKVEIKRTVAAPSVFIFPPSDEQLKSGTASVVCLLNNFYPREAKVQWKVDNALQSGNSQESVTEQDSKDSTYSLSSTLTLSKADYEKHKVYACEVTHQGLSSPVTKSFNRGEC
scFv: DIQMTQSPSSLSASVGDRVTITCRARQSIGTAIHWYQQKPGCAPKLLIKYASESISGVPSRFSGSGSGTDFTLTISSLQPEDFATYYCQQSGSWPYTFGQGTKLEIKGGGSGGSGGCPPCGGSGGEVQLVESGGGLVKPGGSLRLSCAASGFTFSRYNMNWVRQAPGKGLEWVSSISTSSNYIYYADSVKGRFTFSRDNAKNSLDLQMSGLRAEDTAIYYCTRGWGPFDYWGCGTLVTVSSEPKSSDKTHTCPPCPAPEAAGGPSVFLFPPKPKDTLMISRTPEVTCVVVSVSHEDPEVKFNWYVDGVEVHNAKTKPREEQYNSTYRVVSVLTVLHQDWLNGKEYKCKVSNKALPAPIEKTISKAKGQPREPQVYTLPPSREEMTKNQVSLWCLVKGFYPSDIAVEWESNGQPENNYKTTPPVLDSDGSFFLYSKLTVDKSRWQQGNVFSCSVMHEALHNHYTQKSLSLSPGK
notes: IgG1-AAS; also called JNJ-88549968; CALRB421 Fab x CD3 spFv
On to B1, for which the “% Active” value came out at 100% in [1]; 103% in [2]; 98% in experiment [3]; 95% in [4]; 94% in experiment [5]; 94% in experiment [6]. For the same molecule, the “% Active” value in experiment [11] worked out at 94%. Also, the Kd in [1] was 0.231 nM; in [2], 0.114 nM; in experiment [3], 0.0342 nM; in [4], 0.306 nM; in [5], 0.07 nM; in [6] it was 0.0408 nM. Besides, in experiment [11], the Kd came out at 0.0357 nM. The “EC50 (read off the curve)” value in experiment [7] was roughly 4 nM. The binding result in experiment [8] is on record as “no binding (tested: 100 nM)”. The “T cell-mediated cytotoxicity EC50 (nM), ELF-153 MPL CALRins5” value in [9] was found to be 0.094 nM. In [9], the “T cell-mediated cytotoxicity EC50 (nM), OCI-M2 MPL CALRins5” value is 1.69 nM. Also, in [10], the “T cell-mediated cytotoxicity EC50 (nM), ELF-153 MPL CALRdel52” value came out at 0.034 nM. Moreover, the “T cell-mediated cytotoxicity EC50 (nM), OCI-M2 MPL CALRdel52” value in experiment [10] was 0.61 nM.

The values above are taken from patent US20260125457A1 (Janssen / Centocor, published 2026).
